The target of test [1] is hu-HER2-ch(I) (chicken (Gallus gallus); human) (UniProt P04626). The test can be described thus: flow cytometry on CHO-S cells transiently transfected with hu-HER2-ch(I), PE-goat anti-human IgG, MFI (Example 24).
Test [2] deals with hu-HER2-ch(III) (human; chicken (Gallus gallus)) (UniProt P04626). As to the kind of experiment: flow cytometry on CHO-S cells transiently transfected with hu-HER2-ch(III), PE-goat anti-human IgG, MFI (Example 24).
Test [3] concerns the target hu-HER2-ch(IV) (human; chicken (Gallus gallus)) (UniProt P04626). As to the kind of experiment: flow cytometry on CHO-S cells transiently transfected with hu-HER2-ch(IV), PE-goat anti-human IgG, MFI (Example 24).

B1: HER2 HuMab 153 (antibody, V domains shown)
VH: QVQLVESGGGVVQPGRSLRLSCAASGFTFSDYVIHWVRQAPGKGLEWVTVISYDGSNKYYADSVKGRFTISRDNSKNTLYLQMNSLSAEDTAMYYCARGGITGTTGVFDYWGQGTLVTVSS
VL: DIQMTQSPSSLSASVGDRVTITCRASQGISSWLAWYQQKPEKAPKSLIYDASSLQSGVPSRFSGSGYGTDFSLTISSLQPEDFAIYYCQQYKSYPITFGQGTRLEIK
Consider B1, for which the EC50 (read off the curve) in test [1] is 0.05 µg/mL; in test [2], 0.03 µg/mL; in test [3], 0.04 µg/mL.
